Experimental data reported in the nanobody polyreactivity screen of Harvey et al. (2022).

Assay: yeast display, Sf9 membrane polyspecificity reagent, FACS + sequencing; frameworks hold sequencing errors
Summary of the method: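 After 36–48 hours of galactose induction, yeast (Saccharomyces cerevisiae BJ5465) displaying a synthetic nanobody library were stained at 4 °C for 1 hour with 10% biotinylated, detergent-solubilized Sf9 membrane reagent. Streptavidin microbeads enriched the stained cells before FACS sorting into low and high (top ~1%) gates on anti-HA and streptavidin fluorescence. Each clone's polyreactivity label reflects its gate of origin.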

QVQLVESGGGLVQAGGSLRLSCAASGSTFVQYAMGWYRQAPGKERELVAAITRSGGSTYYADSVKGRFTISRDNAKNTVYLQMNSLKPEDTAVYYCAARHYRSRDGYWGQGTQVTVSS
polyreactivity (PSR sort gate): high polyreactivity

QVQLVESGGGLVQAGGSLRLSCAASGSTFVRNAMGWYRQAPGKERELVAAIRWRSGSTYYADSVKGRFTISRDNAKNTVYLQMNSLKPEDTAVYYCAVDYNSFRYGPLGYWGQGTQVTVSS
polyreactivity (PSR sort gate): high polyreactivity

QVQLVESGGGLVQAGGSLRLSCAASGSTFVRNAMGWYRQAPGKERELVAAISNVGSTYYADSVKGRFTISRDNAKNTVYLQMNSLKPEDTAVYYGTKQLWYHKFNYWGQGTQVTVSS
polyreactivity (PSR sort gate): low polyreactivity

QVQLVESGGGLVQAGGSLRLSCAASGSTFVRNAMGWYRQAPGKERELVAAITSSGGSTYYADSVKGRFTISRDNAKNTVYLQMNSLKPVDTAVYYCNARVPPQGWGPWKAFDYWGQGTQVTVSS
polyreactivity (PSR sort gate): low polyreactivity

QVQLVESGGGLVQAGGSLRLSCAASGSTFVRYAMGWYRQAPGKEREFVASITCRGGSTYYADSVKGRFTITRDNAKNTVYLQMNSLKPEDTAVYYCAARGREWYYWGQGTQVTVSS
polyreactivity (PSR sort gate): high polyreactivity

QVQLVESGGGLVQAGGSLRLSCAASGSTFVSNAMGWYRQAPGKERELVARITGSGGNTYYADSVKGRFTISRDNAKNTVYLQMNSLKPEDTAVYYCNADVFRKFGSPSAYKSHRYDYWGQGTQVTVSS
polyreactivity (PSR sort gate): low polyreactivity

QVQLVESGGGLVQAGGSLRLSCAASGSTFVSNTMGWYRQAPGKERELVAAITWTGGRTYYADSVKGRFTISRDNAKNTVYLQMNSLKPEDTAVYYCAAVGTRKMYYWGQGTQVTVSS
polyreactivity (PSR sort gate): high polyreactivity

QVQLVESGGGLVQAGGSLRLSCAASGSTFVTNAMGWYRQAPGKEREFVAAISNSSGSTYYADSVKGRFTISRDNAKNTVYLQMNSLKPEDTAVYYCIATPDDWLQEDYWGQGTQVTVSS
polyreactivity (PSR sort gate): low polyreactivity

QVQLVESGGGLVQAGGSLRLSCAASGSTFVTNGMGWYRQEPGKERELVAAISGNVGSTYYADSVKGRFTISRDNEKNTVYLQMNSLKPEDTAVYYCAARQYRPSDYDYWGQGTQVTVSS
polyreactivity (PSR sort gate): low polyreactivity

QVQLVESGGGLVQAGGSLRLSCAASGSTFVTNVMGWYRQATGKERELVAAISYSGGNTYYEDSVKGRFTISRDNAKNTVYLQMNSLKPEDTAVYYCAAKYRRWGMEYWGQGTQVTVSS
polyreactivity (PSR sort gate): high polyreactivity

QVQLVESGGGLVQAGGSLRLSCAASGSTFVTYAMGRYRQAPGKERELVAAISSAGSTNYADSVKGRFTISRDNAKNTVYLQMNSLKPEDTAVYYCARDIQDTYEFDYWGQGTQVTVSS
polyreactivity (PSR sort gate): low polyreactivity

QVQLVESGGGLVQAGGSLRLSCAASGSTFVTYTMGWYRQAPGKEREFVATISRSGCSTYYADSVKGRFTISRDNAKNTVYLQMNSLKPEDTAVYYCAAVRLVISKYWYIPYDYWGQGTQVTVSS
polyreactivity (PSR sort gate): low polyreactivity

QVQLVESGGGLVQAGGSLRLSCAASGSTFVVNAMGWYRQAPGKERELVAAITQSGGSTFYADSVKGRFTISRDNAKNTVYLQMNSLKPEDTAVYYWGLGTQVTVSS
polyreactivity (PSR sort gate): low polyreactivity

QVQLVESGGGLVQAGGSLRLSCAASGSTFVVNAMVWYRQAPGKERELVAAITQDGDGTYYADSVKGRFTISRDNAKNTVYLQMNSLKPEDTAVYYCAAYPFYGPYDEFDYWGQGTQVTVSS
polyreactivity (PSR sort gate): low polyreactivity

QVQLVESGGGLVQAGGSLRLSCAASGSTFVVYAMGWYRQAPGKEREFVAAITYRGGRTYYADSVKGRFTISRDNAKNTVYLQMNSLKPEDTAVYYCNAPIVRSGYVRSIPAVYYSYYYWGQGTQVTVSS
polyreactivity (PSR sort gate): high polyreactivity

QVQLVESGGGLVQAGGSLRLSCAASGSTFVWNAMGWYRQAPGKERELVAAITNDGRTNYADSVKGRFTISRDNAKNTVYLQMNSLKPEDTAVYYCNADGFNSYWWNYYWGQGTQVTVSS
polyreactivity (PSR sort gate): low polyreactivity

QVQLVESGGGLVQAGGSLRLSCAASGSTFVWNAMGWYRQAPGKERELVATITLSTGSTYYADSVKGRFTISRDNAKNTVYLQMNSLKPEDTAVYYCNTEIYVDIISDYGYWGQGTQVTVSS
polyreactivity (PSR sort gate): low polyreactivity

QVQLVESGGGLVQAGGSLRLSCAASGSTFVYAMVWYRPAPGKERELVAAITTGDSTYYADSVKGRFTISRDNAKNTVYLQMNSLKPEDTAVYYCAAQWYTRDGEYGYWGQGTQVTVSS
polyreactivity (PSR sort gate): low polyreactivity

QVQLVESGGGLVQAGGSLRLSCAASGSTFVYNAMGWYRQAPGKERELVAAISRGGGITYYADSVKGRFTISRDNAKNTVYLQMNSLKPEDTAVYYCNKSRYKSYSYDYWGQGTQVTVSS
polyreactivity (PSR sort gate): high polyreactivity

QVQLVESGGGLVQAGGSLRLSCAASGSTFVYNDMGWYRQAPGKEREFVAAITYSGSTYYADSVNGRFTISRDNAKNTVYLQMNSLKPEDTAVYYCNADPRRPVTSYDYWGQGTQVTVSS
polyreactivity (PSR sort gate): low polyreactivity

QVQLVESGGGLVQAGGSLRLSCAASGSTFVYYAMGRYRQAPGKERELVAAITASGGGTYYADSVKGRFTISRDNAKNTVYLQMNSLKPEDTAVYYCNRGYDYWGQGTQVTVSS
polyreactivity (PSR sort gate): low polyreactivity

QVQLVESGGGLVQAGGSLRLSCAASGSTFVYYAMGWSRQAPGKERELVASIRTGGTTNYADSVKGRFTISRDNAKNTVYLQMNSLKPEDTAVYYCNKDTRPTDTTVSLYYWSAWRDYWGQGTQVTVSS
polyreactivity (PSR sort gate): low polyreactivity
